Here are results for 4 substances from patent US20250101111A1.

By Kd is commonly meant the equilibrium constant for the complex coming apart. Low values mean higher affinity, high ones lower affinity.

For test [1], the target named is human FcγRIa (human) (UniProt P12314). The test is described as follows: SPR (IBIS MX96), FcγR captured on sensor, full-length IgG1 titrated, pH 6.0, equilibrium 1:1 fit.
The target is the same in test [2]. The experiment in a line: SPR (IBIS MX96), FcγR captured on sensor, full-length IgG1 titrated, pH 7.4, equilibrium 1:1 fit.
For test [3], the target named is human FcγRIIa-131H (human) (UniProt P12318). The test is described as follows: SPR (IBIS MX96), FcγR captured on sensor, full-length IgG1 titrated, pH 6.0, equilibrium 1:1 fit.
In test [4] the target is human FcγRIIb (human) (UniProt P31994). The test is described as above.
Test [5] concerns the target human FcγRIIIa-158V (human) (UniProt P08637). Described as above.
Test [6] deals with human FcγRIIIb-NA1 (human) (UniProt O75015). The test is described as above.
The target in test [7] is human FcγRIIa-131R (human) (UniProt P12318). The test is described as above.
In test [8] the target is human FcγRIIa-131H (human) (UniProt P12318). The experiment in a line: SPR (IBIS MX96), FcγR captured on sensor, full-length IgG1 titrated, pH 7.4, equilibrium 1:1 fit.
In test [9] the target is human FcγRIIb (human) (UniProt P31994). The description is as above.
The target of test [10] is human FcγRIIIb-NA1 (human) (UniProt O75015). Described as above.
The target in test [11] is human FcγRIIa-131R (human) (UniProt P12318). Described as above.
For test [12], the target named is human FcγRIIIa-158F (human) (UniProt P08637). The experiment in a line: SPR (IBIS MX96), FcγR captured on sensor, full-length IgG1 titrated, pH 6.0, equilibrium 1:1 fit.
Test [13] has as its target human FcγRIIIb-NA2 (human) (UniProt O75015). The test is described as above.
In test [14] the target is human FcγRIIIa-158F (human) (UniProt P08637). The experiment in a line: SPR (IBIS MX96), FcγR captured on sensor, full-length IgG1 titrated, pH 7.4, equilibrium 1:1 fit.
Test [15] concerns the target human FcγRIIIb-NA2 (human) (UniProt O75015). The test is described as above.
Test [16] has as its target human FcγRIIIa-158V (human) (UniProt P08637). The description is as above.

Sequence of human FcγRIa (human) (P12314 16-288 limits assumed): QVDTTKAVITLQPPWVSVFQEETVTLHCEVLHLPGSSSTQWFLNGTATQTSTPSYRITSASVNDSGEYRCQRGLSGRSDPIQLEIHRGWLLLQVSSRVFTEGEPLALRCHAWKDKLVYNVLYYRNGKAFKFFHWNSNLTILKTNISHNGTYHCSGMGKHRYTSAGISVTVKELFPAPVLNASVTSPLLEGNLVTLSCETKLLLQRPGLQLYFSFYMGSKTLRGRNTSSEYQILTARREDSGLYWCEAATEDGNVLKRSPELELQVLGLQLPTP
Sequence of human FcγRIIIa-158F (human) (P08637 17-208 limits assumed): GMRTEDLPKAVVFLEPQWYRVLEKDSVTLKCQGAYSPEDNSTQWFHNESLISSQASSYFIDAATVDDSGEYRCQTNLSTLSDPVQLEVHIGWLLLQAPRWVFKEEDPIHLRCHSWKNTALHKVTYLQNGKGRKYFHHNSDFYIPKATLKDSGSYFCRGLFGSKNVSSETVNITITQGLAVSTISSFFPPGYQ
Sequence of human FcγRIIIa-158V (human) (P08637 17-208 F176V limits assumed): as the sequence (P08637 17-208 limits assumed) above, with F160V counted along it
Sequence of human FcγRIIb (human) (P31994 43-217 limits assumed): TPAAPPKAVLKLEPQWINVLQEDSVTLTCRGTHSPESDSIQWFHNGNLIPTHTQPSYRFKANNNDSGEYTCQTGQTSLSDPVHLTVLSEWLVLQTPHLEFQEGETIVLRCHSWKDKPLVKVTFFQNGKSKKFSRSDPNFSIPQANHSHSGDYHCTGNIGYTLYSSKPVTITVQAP
Sequence of human FcγRIIIb-NA2 (human) (O75015 17-200 N65S limits assumed): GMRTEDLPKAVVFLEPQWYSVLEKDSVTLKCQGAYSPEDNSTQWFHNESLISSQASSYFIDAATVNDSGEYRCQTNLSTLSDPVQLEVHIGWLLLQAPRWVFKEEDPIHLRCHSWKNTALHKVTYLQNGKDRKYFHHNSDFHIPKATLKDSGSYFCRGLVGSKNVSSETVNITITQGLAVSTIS
Sequence of human FcγRIIa-131R (human) (P12318 34-218 H167R limits assumed): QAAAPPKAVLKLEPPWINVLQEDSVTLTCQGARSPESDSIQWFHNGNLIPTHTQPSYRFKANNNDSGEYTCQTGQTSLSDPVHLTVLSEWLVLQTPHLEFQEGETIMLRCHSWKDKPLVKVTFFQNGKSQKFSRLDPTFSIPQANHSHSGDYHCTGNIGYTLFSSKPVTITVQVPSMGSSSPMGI
Sequence of human FcγRIIIb-NA1 (human) (O75015 other isoform, or with tags, fused parts or gaps limits assumed): as the sequence (O75015 17-200 N65S limits assumed) above, with S20R, S49N, N66D, I90V counted along it
Sequence of human FcγRIIa-131H (human) (P12318 34-218 limits assumed): as the sequence (P12318 34-218 H167R limits assumed) above, with R134H counted along it

In the case of IgG1-ΔG236 (antibody), the Kd in test [1] and in [2] was greater than 2000 nM each time.
With IgG1-G236A (antibody), the Kd was 141 nM in test [3]; greater than 2000 nM in test [4]; 491 nM in test [5]; greater than 2000 nM in test [6]; 63.3 nM in [1]; 358 nM in [7]. For the same substance, the Kd in test [8] was 126 nM; in test [9] it was greater than 2000 nM; in test [10], greater than 2000 nM; in test [2] it was 13.2 nM; in test [11], 241 nM.
As to IgG1-WT (antibody), the dissociation constant (Kd) in [12] is 894 nM; in [3], 455 nM; in test [13], greater than 2000 nM; in [4], greater than 2000 nM; in [5], 337 nM; in test [6], greater than 2000 nM. In addition, the dissociation constant Kd was 27 nM in test [1]; 920 nM in test [7]; greater than 2000 nM in [14]; 668 nM in test [8]; greater than 2000 nM in [15]; greater than 2000 nM in test [9]. Besides, the equilibrium dissociation constant (Kd) in test [16] is 382 nM; in test [10], greater than 2000 nM; in test [2] it was 7.1 nM; in [11], 953 nM.
Turning to IgG1-WT-afuc (antibody), the Kd was 102 nM in test [12]; 1020 nM in test [3]; 625 nM in test [13]; greater than 2000 nM in [4]; 17.8 nM in test [5]; greater than 2000 nM in [6]. In addition, the Kd in [1] was 33.3 nM; in [7] it was 1990 nM; in test [14], 80.7 nM; in test [8] it was 1000 nM; in [15], 552 nM; in test [9], greater than 2000 nM. The Kd in [16] stood at 16.6 nM; in test [10], 617 nM; in [2], 32.9 nM; in test [11] it was 1010 nM.
